The labels stand for the following.
B1: Peroxisome proliferator-activated receptor delta, residues 71 to 145; numbered along this chain, Q03181 (parent)
chain: NMECRVCGDKASGFHYGVHACEGCKGFFRRTIRMKLEYEKCERSCKIQKKNRNKCQYCRFQKCLALGMSHNAIRF

± gives the uncertainty stated by the source.

This series covers variants of B1. As to the kind of experiment: abundance fitness (aPCA) (normalised: wild type 0, dead -1); higher = more abundant; growth selection in yeast, the domain comes from the species named. Particulars: Homo sapiens.
As to NMECRVCGDKASGFHYGVHACEGCKGFFRRTIRMKLEYEKCERSCKIQKKNRNKCQYCRFQKALALGMSHNAIRF [C63A], the abundance fitness is -0.585 ± 0.077.

As for NMECRVCGDKASGFHYGVHACEGCKGFFRRTIRMKLEYEKCERSCKIQKKNRNKCQYCRFQKCLALGMSHNAIRV [F75V], the abundance fitness was 0.015 ± 0.062.

On to NMECRVCGDKASGFHYGVHICEGCKGFFRRTIRMKLEYEKCERSCKIQKKNRNKCQYCRFQKCLALGMSHNAIRF [A20I], for which the abundance fitness was -0.023 ± 0.11.

As for NMECRVCGDKASGFHYGVHLCEGCKGFFRRTIRMKLEYEKCERSCKIQKKNRNKCQYCRFQKCLALGMSHNAIRF [A20L], the abundance fitness was -0.106 ± 0.051.

For NMECRVCGDKASGFHYGVHACEGCKGFFRRTIRMKLVYEKCERSCKIQKKNRNKCQYCRFQKCLALGMSHNAIRF [E37V], the abundance fitness was -0.042 ± 0.035.

In the case of NMECAVCGDKASGFHYGVHACEGCKGFFRRTIRMKLEYEKCERSCKIQKKNRNKCQYCRFQKCLALGMSHNAIRF [R5A], the abundance fitness was determined as 0.175 ± 0.034.

Take NMECRKCGDKASGFHYGVHACEGCKGFFRRTIRMKLEYEKCERSCKIQKKNRNKCQYCRFQKCLALGMSHNAIRF [V6K]: the abundance fitness was -0.745 ± 0.14.

In the case of NMECRGCGDKASGFHYGVHACEGCKGFFRRTIRMKLEYEKCERSCKIQKKNRNKCQYCRFQKCLALGMSHNAIRF [V6G], the abundance fitness was -0.841 ± 0.079.

As for NMECRHCGDKASGFHYGVHACEGCKGFFRRTIRMKLEYEKCERSCKIQKKNRNKCQYCRFQKCLALGMSHNAIRF [V6H], the abundance fitness is -0.914 ± 0.32.

For NMECRQCGDKASGFHYGVHACEGCKGFFRRTIRMKLEYEKCERSCKIQKKNRNKCQYCRFQKCLALGMSHNAIRF [V6Q], the abundance fitness was -0.968 ± 0.2.

As for NMECRVCGDKASGFHYGVHACEGCKGFFRRTIRMKLEYEKCERSCKIQKKNRNKCQYDRFQKCLALGMSHNAIRF [C58D], the abundance fitness was -0.719 ± 0.17.

Take NMECRVCGDKASGFHYGVHACEGCKGFFRRTIRMKLEYEKCERSCKIQKKNRNKCQYKRFQKCLALGMSHNAIRF [C58K]: the abundance fitness was -0.825 ± 0.13.

With NMECRVCGDKASGFHYGVHACEGCKGFFRRTIRMKLEYEKCERSCKIQKKNRNKCQYLRFQKCLALGMSHNAIRF [C58L], the abundance fitness is -0.769 ± 0.086.

In the case of NMECRVCGDKASGFHYGVHACEGCKGFFRRTIRMKLEYQKCERSCKIQKKNRNKCQYCRFQKCLALGMSHNAIRF [E39Q], the abundance fitness is -0.082 ± 0.052.

Regarding NMECRVCGDKASGFHYGVHACEGCKGFFRRTIRMKLEYEKCERSCKIQKKNRNKCQSCRFQKCLALGMSHNAIRF [Y57S], the abundance fitness was -0.35 ± 0.061.

Regarding NMECRVCGDKASGFHYGVHACEGCHGFFRRTIRMKLEYEKCERSCKIQKKNRNKCQYCRFQKCLALGMSHNAIRF [K25H], the abundance fitness is -0.19 ± 0.089.

Consider NMECRVCGDKASGFHYGVHACEGCKGFFRRTERMKLEYEKCERSCKIQKKNRNKCQYCRFQKCLALGMSHNAIRF [I32E], for which the abundance fitness is -0.531 ± 0.12.

Turning to NMECRVCGDKASGFHYGVHACEGCKGFFRRTQRMKLEYEKCERSCKIQKKNRNKCQYCRFQKCLALGMSHNAIRF [I32Q], the abundance fitness was -0.365 ± 0.093.

NMECRVCGDKASGFHYGVHACEGCKGFFRRTIRMKLEYEKCERSCKIQKKNRNKWQYCRFQKCLALGMSHNAIRF [C55W]: the abundance fitness was -0.858 ± 0.087.

For the variant NMECRVCGDKASGFHYGVHACPGCKGFFRRTIRMKLEYEKCERSCKIQKKNRNKCQYCRFQKCLALGMSHNAIRF [E22P], the abundance fitness is -0.294 ± 0.056.

For the variant NMECRVCIDKASGFHYGVHACEGCKGFFRRTIRMKLEYEKCERSCKIQKKNRNKCQYCRFQKCLALGMSHNAIRF [G8I], the abundance fitness was -0.687 ± 0.34.

Regarding NMECRVCGDKASGFHYGVHACEGCKGFFRRTIRMKLEYEKCERSCKIQKKNRNKCQYCRFQKCLAHGMSHNAIRF [L66H], the abundance fitness is -0.436 ± 0.13.

In the case of NMECRVCGDKASGFHYQVHACEGCKGFFRRTIRMKLEYEKCERSCKIQKKNRNKCQYCRFQKCLALGMSHNAIRF [G17Q], the abundance fitness is -0.248 ± 0.061.

In the case of NMECRVCGDKASGFHYGVHACEGCKGFFRRTIRMKLEYEKCERSCKIQKKNRNKCQYCRFQKCLALGMEHNAIRF [S69E], the abundance fitness is 0.022 ± 0.043.

For NMECRVCGDKASGFHYGVHACEGCKGFFRRTIRMKLEYEKCERSCKIQKKNRNKCQYCRFQKCLALGMCHNAIRF [S69C], the abundance fitness was -0.138 ± 0.063.

In the case of NMECRVCGDKASGFHYGVHACEGCKGFFRRTIRMKLEYEKCERSCKIQKKNRNKCQYCRFQKCLALGMDHNAIRF [S69D], the abundance fitness stood at 0.147 ± 0.05.

Turning to NMECRVCGDKASGFHYGVHACEGCKGFFRRTIRMKLEYEKCERSCKIQKKNRNKCQYCRFQKCLALGMNHNAIRF [S69N], the abundance fitness was -0.118 ± 0.08.

Turning to NMECRVCGDKASGFHYGVHACEGCKGFFRRTIRMKLEYEKCERSCKIQKKNRNKCQYCRFQKCLALGMVHNAIRF [S69V], the abundance fitness was -0.057 ± 0.043.

With NMECRVCGDKASPFHYGVHACEGCKGFFRRTIRMKLEYEKCERSCKIQKKNRNKCQYCRFQKCLALGMSHNAIRF [G13P], the abundance fitness was -0.363 ± 0.079.

Consider NMECRVCGDKASGFHYGVHACEGCKGFFRRTIRMKEEYEKCERSCKIQKKNRNKCQYCRFQKCLALGMSHNAIRF [L36E], for which the abundance fitness was -0.109 ± 0.055.

As for NMECRVCGDKASGFHYGVHACEGCKGFFRRTIRMCLEYEKCERSCKIQKKNRNKCQYCRFQKCLALGMSHNAIRF [K35C], the abundance fitness was -0.015 ± 0.053.

For the variant NMECRVCGDKASGFHYGVHACEGCKGFFRRTIRMKLEYEKCERSCKIQKKNREKCQYCRFQKCLALGMSHNAIRF [N53E], the abundance fitness is 0.123 ± 0.042.

As to NMECRVCGDKASGFHYGVHACEGCKGFFRRTIRMKLEYEKCERSCKIQKKNRYKCQYCRFQKCLALGMSHNAIRF [N53Y], the abundance fitness was -0.249 ± 0.098.

Regarding NMECRVCGDKASGFHYGVHACEGCKGFFRRTIRMKLEYEKCERSCKIQKKNRNKCQYCRFQKCLALGMSHNTIRF [A72T], the abundance fitness was -0.248 ± 0.065.

Take NMECRVCGDKASGFHYGVHACEFCKGFFRRTIRMKLEYEKCERSCKIQKKNRNKCQYCRFQKCLALGMSHNAIRF [G23F]: the abundance fitness is -0.001 ± 0.084.

Turning to NMECRVCGDNASGFHYGVHACEGCKGFFRRTIRMKLEYEKCERSCKIQKKNRNKCQYCRFQKCLALGMSHNAIRF [K10N], the abundance fitness is -0.075 ± 0.08.

As for NMECRVCGDKASGFHYGVHACEGCKGFFRRTIRMKLEYEKCERSCKIQKKNRNKCQYCRFQECLALGMSHNAIRF [K62E], the abundance fitness is -0.447 ± 0.078.

The values are drawn from the Human Domainome abundance scans (Beltran et al. 2025).
